This is an account of results in US20220378893A1 (INDUSTRY UNIVERSITY COOPERATION FOUNDATION HANYANG …, published 2022).

The labels stand for the following.
B1: p22phox, endogenous in THP-1 cells (other)
chain: GQIEWAMWANEQALASGLILITGGIVATAGRFTQWYFGAYSIVAGVFVCLLEYPRGKRKKGSTMERWGQKYMTAVVKLFGPFTRNYYVRAVLHLLLSVPAGFLLATILGTACLAIASGIYLLAAVRGEQWTPIEPKPRERPQIGGTIKQPPSNPPPRPPAEARKKPSEEEAAVAAGGPPGGPQVNPIPVTDEVV
B2: neutrophil cytosol factor 1 (p47phox), endogenous in THP-1 cells (other)
chain: MGDTFIRHIALLGFEKRFVPSQHYVYMFLVKWQDLSEKVVYRRFTEIYEFHKTLKEMFPIEAGAINPENRIIPHLPAPKWFDGQRAAENRQGTLTEYCSTLMSLPTKISRCPHLLDFFKVRPDDLKLPTDNQTKKPETYLMPKDGKSTATDITGPIILQTYRAIANYEKTSGSEMALSTGDVVEVVEKSESGWWFCQMKAKRGWIPASFLEPLDSPDETEDPEPNYAGEPYVAIKAYTAVEGDEVSLLEGEAVEVIHKLLDGWWVIRKDDVTGYFPSMYLQKSGQDVSQAQRQIKRGAPPRRSSIRNAHSIHQRSRKRLSQDAYRRNSVRFLQQRRRQARPGPQSPGSPLEEERQTQRSKPQPAVPPRPSADLILNRCSESTKRKLASAV
notes: Human by the cell line; also called p47phox, 45K

Assay [1] concerns the target unlabeled p47phox (in vitro titration). The experiment in a line: fluorescence titration of BODIPY FL-labeled MPT63 with unlabeled p47phox, curve fitting, 25 C.
Assay [2] concerns the target unlabeled TBK1 (in vitro titration). The experiment in a line: fluorescence titration of BODIPY FL-labeled MPT63 with unlabeled TBK1, curve fitting, 25 C.
For assay [3] the target is unchanged. The experiment in a line: fluorescence titration of BODIPY FL-labeled MPT64 with unlabeled TBK1, curve fitting, 25 C.
In assay [4] the target is unlabeled HK2 (in vitro titration). The experiment in a line: fluorescence titration of BODIPY FL-labeled MPT64 with unlabeled HK2, curve fitting, 25 C.
The target in assay [5] is B2. The experiment in a line: co-IP in THP-1 cells treated with p47 peptide.
The target in assay [6] is T1, p67phox, endogenous in THP-1 cells (human, UniProt P19878 1-526).
T1 sequence: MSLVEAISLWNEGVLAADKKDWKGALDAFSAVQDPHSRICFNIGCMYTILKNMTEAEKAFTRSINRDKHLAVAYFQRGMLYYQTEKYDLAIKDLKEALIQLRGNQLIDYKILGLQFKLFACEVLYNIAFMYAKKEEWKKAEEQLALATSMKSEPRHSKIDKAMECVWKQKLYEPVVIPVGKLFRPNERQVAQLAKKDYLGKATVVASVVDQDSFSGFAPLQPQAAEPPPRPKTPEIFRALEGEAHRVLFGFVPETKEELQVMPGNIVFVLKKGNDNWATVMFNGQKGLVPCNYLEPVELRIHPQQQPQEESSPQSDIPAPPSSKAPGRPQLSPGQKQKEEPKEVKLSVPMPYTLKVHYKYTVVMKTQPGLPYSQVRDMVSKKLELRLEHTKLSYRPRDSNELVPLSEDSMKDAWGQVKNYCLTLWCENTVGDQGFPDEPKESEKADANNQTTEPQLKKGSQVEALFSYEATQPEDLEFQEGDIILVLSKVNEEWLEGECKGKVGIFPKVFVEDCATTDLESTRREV
The experiment in a line: co-IP in THP-1 cells treated with p47 peptide.

unlabeled TBK1 (in vitro titration), sequence (Q9UHD2 whole entry): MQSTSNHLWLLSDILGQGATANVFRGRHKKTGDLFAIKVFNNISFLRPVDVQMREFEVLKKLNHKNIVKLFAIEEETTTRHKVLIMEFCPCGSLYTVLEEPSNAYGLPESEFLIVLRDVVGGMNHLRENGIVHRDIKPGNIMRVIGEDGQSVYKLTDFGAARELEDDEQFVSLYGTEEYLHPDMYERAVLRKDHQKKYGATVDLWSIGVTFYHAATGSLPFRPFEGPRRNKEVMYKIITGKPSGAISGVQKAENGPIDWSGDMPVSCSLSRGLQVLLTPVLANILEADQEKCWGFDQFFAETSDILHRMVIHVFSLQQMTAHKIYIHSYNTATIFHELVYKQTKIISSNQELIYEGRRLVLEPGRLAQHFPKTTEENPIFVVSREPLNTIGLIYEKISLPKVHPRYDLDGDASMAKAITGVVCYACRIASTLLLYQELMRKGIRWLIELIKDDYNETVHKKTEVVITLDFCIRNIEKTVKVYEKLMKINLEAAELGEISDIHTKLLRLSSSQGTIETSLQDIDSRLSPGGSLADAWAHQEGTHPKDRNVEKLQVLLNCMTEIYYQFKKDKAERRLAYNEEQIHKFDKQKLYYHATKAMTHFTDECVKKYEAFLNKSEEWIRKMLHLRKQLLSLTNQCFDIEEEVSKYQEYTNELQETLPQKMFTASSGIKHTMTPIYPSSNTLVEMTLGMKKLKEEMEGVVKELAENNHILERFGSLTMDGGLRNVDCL

Take “recombinant MPT63 (rMPT63) (from UniProt P9WIP1 30-159)”: the Kd in assay [1] worked out at 0.345 µM; in assay [2] it was 0.178 µM.

Regarding “recombinant MPT64 (rMPT64) (from UniProt P9WIN9 24-228)”, the Kd in assay [3] stood at 0.193 µM; in assay [4], 0.134 µM.

B1: the binding result in assay [5] is on record as “binds”.

On to B2, for which, in assay [6], the binding result is reported as “binds”.
